Results from IntAct's records for PubMed 28864920.

B1: DNA repair protein RAD51 homolog 3 (Homo sapiens), O43502 (parent)
chain: MRGKTFRFEMQRDLVSFPLSPAVRVKLVSAGFQTAEELLEVKPSELSKEVGISKAEALETLQIIRRECLTNKPRYAGTSESHKKCTALELLEQEHTQGFIITFCSALDDILGGGVPLMKTTEICGAPGVGKTQLCMQLAVDVQIPECFGGVAGEAVFIDTEGSFMVDRVVDLATACIQHLQLIAEKHKGEEHRKALEDFTLDNILSHIYYFRCRDYTELLAQVYLLPDFLSEHSKVRLVIVDGIAFPFRHDLDDLSLRTRLLNGLAQQMISLANNHRLAVILTNQMTTKIDRNQALLVPALGESWGHAATIRLIFHWDRKQRLATLYKSPSQKECTVLFQIKPQGFRDTVVTSACSLQTEGSLSTRKRSRDPEEEL
partner: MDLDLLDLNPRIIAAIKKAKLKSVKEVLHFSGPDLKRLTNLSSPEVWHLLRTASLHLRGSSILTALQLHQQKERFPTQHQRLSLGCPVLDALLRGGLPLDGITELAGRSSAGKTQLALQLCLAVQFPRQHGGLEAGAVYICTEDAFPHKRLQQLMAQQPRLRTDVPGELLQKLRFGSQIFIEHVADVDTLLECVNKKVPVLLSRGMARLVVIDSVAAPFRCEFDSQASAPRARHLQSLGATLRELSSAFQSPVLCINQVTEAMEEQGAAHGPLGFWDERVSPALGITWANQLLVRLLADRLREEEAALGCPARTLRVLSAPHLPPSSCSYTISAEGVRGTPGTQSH
B2: DNA repair protein RAD51 homolog 1 (Homo sapiens), Q06609 (parent)
chain: MAMQMQLEANADTSVEEESFGPQPISRLEQCGINANDVKKLEEAGFHTVEAVAYAPKKELINIKGISEAKADKILAEAAKLVPMGFTTATEFHQRRSEIIQITTGSKELDKLLQGGIETGSITEMFGEFRTGKTQICHTLAVTCQLPIDRGGGEGKAMYIDTEGTFRPERLLAVAERYGLSGSDVLDNVAYARAFNTDHQTQLLYQASAMMVESRYALLIVDSATALYRTDYSGRGELSARQMHLARFLRMLLRLADEFGVAVVITNQVVAQVDGAAMFAADPKKPIGGNIIAHASTTRLYLRKGRGETRICKIYDSPCLPEAEAMFAINADGVGDAKD
partner: B1 partner
B3: DNA repair protein XRCC3 (Homo sapiens), O43542 (parent)
chain: B1 partner
B4: DNA repair protein RAD51 homolog 3 (Homo sapiens), O43502 (parent)
chain: B1 chain
partner: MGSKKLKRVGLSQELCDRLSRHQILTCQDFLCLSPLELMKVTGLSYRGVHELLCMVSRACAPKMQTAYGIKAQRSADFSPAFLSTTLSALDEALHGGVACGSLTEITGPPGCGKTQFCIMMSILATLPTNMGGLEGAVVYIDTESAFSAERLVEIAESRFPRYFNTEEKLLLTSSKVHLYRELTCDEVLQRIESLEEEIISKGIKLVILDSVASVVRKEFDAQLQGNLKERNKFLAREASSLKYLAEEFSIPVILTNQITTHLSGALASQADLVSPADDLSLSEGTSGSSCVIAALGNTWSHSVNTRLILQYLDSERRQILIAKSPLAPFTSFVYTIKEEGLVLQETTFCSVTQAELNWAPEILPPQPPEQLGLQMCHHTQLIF
B5: DNA repair protein XRCC3 (Homo sapiens), O43542 (parent)
chain: B1 partner
partner: B1 chain

Variants of: B1
Details: with xrcc3_human XRCC3, O43542

| Variant | effect of a mutation on the interaction |
| --- | --- |
| MRGKTFRFEMQRDLVSFPLSPAVRVKLVSAGFQTAEELLEVKPSELSKEVGISKAEALETLQIIRRECLTNKPRYAGTSESHKKCTALELLEQEHTQGFIITFCSALDDILGGGVPLMKTTEICGAPGVGKTQLRMQLAVDVQIPECFGGVAGEAVFIDTEGSFMVDRVVDLATACIQHLQLIAEKHKGEEHRKALEDFTLDNILSHIYYFRCRDYTELLAQVYLLPDFLSEHSKVRLVIVDGIAFPFRHDLDDLSLRTRLLNGLAQQMISLANNHRLAVILTNQMTTKIDRNQALLVPALGESWGHAATIRLIFHWDRKQRLATLYKSPSQKECTVLFQIKPQGFRDTVVTSACSLQTEGSLSTRKRSRDPEEEL [C135R] | disrupting interaction strength |

Variants of: B2
Details: with xrcc3_human XRCC3, O43542

| Variant | effect of a mutation on the interaction |
| --- | --- |
| MAMQMQLEANADTSVEEESFGPQPISRLEQCGINANDVKKLEEAGFHTVEAVAYVPKKELINIKGISEAKADKILAEAAKLVPMGFTTATEFHQRRSEIIQITTGSKELDKLLQGGIETGSITEMFGEFRTGKTQICHTLAVTCQLPIDRGGGEGKAMYIDTEGTFRPERLLAVAERYGLSGSDVLDNVAYARAFNTDHQTQLLYQASAMMVESRYALLIVDSATALYRTDYSGRGELSARQMHLARFLRMLLRLADEFGVAVVITNQVVAQVDGAAMFAADPKKPIGGNIIAHASTTRLYLRKGRGETRICKIYDSPCLPEAEAMFAINADGVGDAKD [A55V] | with no effect |
| MAMQMQLEANADTSVEEESFGPQPISRLEQCGINANDVKKLEEAGFHTVEAVAYAPKKELINIKGISEAKADKILAEADKLVPMGFTTATEFHQRRSEIIQITTGSKELDKLLQGGIETGSITEMFGEFRTGKTQICHTLAVTCQLPIDRGGGEGKAMYIDTEGTFRPERLLAVAERYGLSGSDVLDNVAYARAFNTDHQTQLLYQASAMMVESRYALLIVDSATALYRTDYSGRGELSARQMHLARFLRMLLRLADEFGVAVVITNQVVAQVDGAAMFAADPKKPIGGNIIAHASTTRLYLRKGRGETRICKIYDSPCLPEAEAMFAINADGVGDAKD [A79D] | decreasing interaction strength |

Variants of: B3
Details: with rad51_human RAD51, Q06609

| Variant | effect of a mutation on the interaction |
| --- | --- |
| MDLDLLDLNPRIIAAIKKAKLKSVKEVLHFSGPDLKRLTNLSSPEVWHLLRTASLHLRGSSILTALQLHQQKERFPTQHQRLSLGCPVLDALLRGGLPLDGITELAGRSSAGKTQLALQLCLAVQFPRQHGGLEAGAVYICTEDAFPHKRLQQLMAQQPRLRTDVPGELLQKLRFGSQIFIEHVADVDTLLECVNKKVPVLLSRGMARLVVIDSVAAPFRCEFDSQASAPRARHLQSLGATLRELSSAFQSPVLCINQVTEAMEEQGAAHGPLGFWDERVSPALGITWANQLLVRLPADRLREEEAALGCPARTLRVLSAPHLPPSSCSYTISAEGVRGTPGTQSH [L297P] | disrupting interaction strength |
| MDLDLLDLNPRIIAAIKKAKLKSVKEVLHFSGPDLKRLTNLSSPEVWHLLRTASLHLRGSSILTALQLHQQKERFPTQHQRLSLGCPVLDALLRGGLPLDGITELAGRSSAGKTQLALQLCLAVQFPRQHGGLEAGAVYICTEDAFPHKRLQQLMAQQPRLRTDVPGELLQKLRFGSQIFIEHVADVDTLLECVNKKVPVLLSRGMARLVVIDSVAAPFRCEFDSQASAPRARHLQSLGATLRELSSAFQSPVLCINQVTEAMEEQGAAHGPLGFWDERVSPALGITWANQLLVRLLADRLREEEAALGCPARTLRVLSAPHLPPSSCSYTISAEGERGTPGTQSH [V337E] | disrupting interaction strength |

Variants of: B4
Details: with ra51b_human RAD51B

| Variant | effect of a mutation on the interaction |
| --- | --- |
| MRGKTFRFEMQRDLVSFPLSPAVRVKLVSAGFQTAEELLEVKPSELSKEVGISKAEALETLQIIRRECLTNKPRYAGTSESHKKCTALELLEQEHTQGFIITFCSALDDILGGGVPLMKTTEICGAPGVGKTQLRMQLAVDVQIPECFGGVAGEAVFIDTEGSFMVDRVVDLATACIQHLQLIAEKHKGEEHRKALEDFTLDNILSHIYYFRCRDYTELLAQVYLLPDFLSEHSKVRLVIVDGIAFPFRHDLDDLSLRTRLLNGLAQQMISLANNHRLAVILTNQMTTKIDRNQALLVPALGESWGHAATIRLIFHWDRKQRLATLYKSPSQKECTVLFQIKPQGFRDTVVTSACSLQTEGSLSTRKRSRDPEEEL [C135R] | disrupting interaction strength |

Variants of: B5
Details: with ra51c_human RAD51C

| Variant | effect of a mutation on the interaction |
| --- | --- |
| MDLDLLDLNPRIIAAIKKAKLKSVKEVLHFSGPDLKRLTNLSSPEVWHLLRTASLHLRGSSILTALQLHQQKERFPTQHQRLSLGCPVLDALLRGGLPLDGITELAGRSSAGKTQLALQLCLAVQFPRQHGGLEAGAVYICTEDAFPHKRLQQLMAQQPRLRTDVPGELLQKLRFGSQIFIEHVADVDTLLECVNKKVPVLLSRGMARLVVIDSVAAPFRCEFDSQASAPRARHLQSLGATLRELSSAFQSPVLCINQVTEAMEEQGAAHGPLGFWDERVSPALGITWANQLLVRLLADRLREEEAALGCPARTLRVLSAPHLPPSSCSYTISAEGERGTPGTQSH [V337E] | disrupting interaction strength |
| MDLDLLDLNPRIIAAIKKAKLKSVKEVLHFSGPDLKRLTNLSSPEVWHLLRTASLHLRGSSILTALQLHQQKERFPTQHQRLSLGCPVLDALLRGGLPLDGITELAGRSSAGKTQLALQLCLAVQFPRQHGGLEAGAVYICTEDAFPHKRLQQLMAQQPRLRTDVPGELLQKLRFGSQIFIEHVADVDTLLECVNKKVPVLLSRGMARLVVIDSVAAPFRCEFDSQASAPRARHLQSLGATLRELSSAFQSPVLCINQVTEAMEEQGAAHGPLGFWDERVSPALGITWANQLLVRLPADRLREEEAALGCPARTLRVLSAPHLPPSSCSYTISAEGVRGTPGTQSH [L297P] | disrupting interaction strength |
